According to doi:10.1101/2024.01.07.574580:

Key:
[1] = biological target: YY1 cellular transcription factor (UniProt P25490); assay: co-immunoprecipitation (FLAG-EBNA-LP IP, YY1 immunoblot, band signal quantified); conditions: 50% IP lanes; trans-complemented LPKO LCLs from total B cells; parent: 1.0
[2] = biological target: YY1 cellular transcription factor (UniProt P25490); assay: co-immunoprecipitation (YY1 IP, FLAG-EBNA-LP immunoblot, band signal quantified); conditions: 50% IP lanes; trans-complemented LPKO LCLs; parent: 1

Sequence of UniProt P25490 (P25490 whole entry): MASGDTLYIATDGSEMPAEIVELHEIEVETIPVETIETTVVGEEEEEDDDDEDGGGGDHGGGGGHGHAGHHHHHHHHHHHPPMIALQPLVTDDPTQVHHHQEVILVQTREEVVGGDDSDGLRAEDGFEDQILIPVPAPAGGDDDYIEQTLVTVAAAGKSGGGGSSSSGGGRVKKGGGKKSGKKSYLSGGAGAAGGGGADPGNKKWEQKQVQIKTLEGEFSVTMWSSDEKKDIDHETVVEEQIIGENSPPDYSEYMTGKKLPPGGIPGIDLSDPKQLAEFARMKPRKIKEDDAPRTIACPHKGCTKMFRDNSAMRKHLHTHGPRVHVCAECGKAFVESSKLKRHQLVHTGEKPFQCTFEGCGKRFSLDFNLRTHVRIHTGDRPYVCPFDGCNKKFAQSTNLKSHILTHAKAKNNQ

Substance “FLAG-EBNA-LP, wild type (B95-8), four W domains W:L25A; W:L28A; W:L29A; Y:L13A; Y:L17A; Y:L18A” has a response [1] of 0.01 and a response [2] of 0.
